Measured values published in patent US6846636B1, “Methods and compositions for HDL holoparticle uptake receptor” (American National Red Cross, priority 1998, dated 2005).
Entries after “also recorded” stand apart in the source; their conditions may differ.

What was measured:
[1] = system: RA/Bt2cAMP-treated F9 cells; assay: DiI-HDL uptake by fluorescence-activated cell (FAC) scanning; format: cell-based, mouse; settings: DiI-HDL 1 μg/ml, 37° C.; competitors preincubated; apolipoproteins and RAP 1 μM, apoE 0.25 μM, heparin 80 μM, IgGs 200 μg/ml, heparinase I 10 U/ml
Method: Untreated and RA/Bt2cAMP-treated F9 cells (1-1.5×10^5 cells/cm^2) were grown for 18 hours in serum-free medium (DMEM, ITS, penicillin, and streptomycin). After washing the cell layers with the same serum-free medium, apoE-free DiI-HDL was added to a final concentration of 1 μg/ml and incubated for 1-2 hours at 37° C., 5% CO2. For competition experiments, competitors were added in serum-free medium and incubated for 0.5 hours at 37° C., 5% CO2 prior to the addition of the DiI-HDL. After the incubation, the medium was removed, cell layers washed with serum-free medium and the cells released with a 0.5 mg/ml trypsin-0.53 mM EDTA solution (Mediatech). The cells were then pelleted by centrifugation at 180×g and resuspended in DMEM. Twice more, the cells were pelleted by centrifugation at 180×g, and resuspended in dPBS. The cells were then subjected to FAC sorting on a FACStarplus instrument (Becton Dickinson, San Jose, Calif.).
RA/Bt2cAMP-treated and -untreated F9 cells (1-1.5×10^5 cclls/cm^2) were grown for 18 h in SFM. After washing the cell layers with SFM, DiI-HDL or DIO-LDL was added to a final concentration of 1 μg/ml and incubated for 2 h at 37° C., 5% CO2. For competition experiments, competitors (HDL, HDL2, HDL3 and their corresponding apoE-free forms), LDL, oxidized LDL, VLDL, §-VLDL, Lp(a) ([…]), apoA-I (28.3 μg/ml, 1 μM), apoA-II (I 7.3 μg/ml, 1 μM), apoC-I (6.6 μg/ml, 1 μM), apoC-III (8.8 μg/ml, 1 μM), apoJ (70 μg/ml, 1 μM), ovalbumin (45 μg/ml, 1 μM), RAP (39 μg/ml, 1 μM), apoE (8.5 μg/ml, 0.25 μM), heparin (80 μM, 250 U/ml) or IgGs (200 μg/ml) were added in SFM and incubated for 45 min at 37° C., 5% CO2 prior to the addition of the fluorescent lipoproteins. After the incubation, the medium was removed, cell layers were washed with SFM and the cells were released with trypsin-EDTA-proteinase K. The cells were washed once with DMEM, twice with dPBS, then subjected to FAC scanning on a FACStar Plus instrument (Becton Dickinson, San Jose, Calif.). Plotted data are from gated cells having fluorescence intensity values greater than the autofluorescence values of 99% of unlabeled cells. For some experiments, cell layers were treated with hepaninase I (10 U/ml) for 2 h prior to the addition of the DiI-HDL.

[2] = system: visceral yolk sac endoderm; assay: DiI-HDL uptake by mouse embryo yolk sac (ex utero culture, confocal microscopy); settings: ± S.D.; DiI-HDL 1 μg/ml 1 h; RAP, ovalbumin 1 μM; IgGs 400 μg/ml; p<0.01 vs control
Method: Embryos (8-8.5 days post-conception) were removed from timed pregnant ICR mice (Harlan Sprague Dawley, Inc.) so as to leave visceral yolk sac endoderm intact and placed in DMEM. The embryos were then incubated in DMEM containing RAP (1 μM), ovalbumin (1 μM), rabbit anti-cubilin IgG (400 μg/ml) or normal rabbit IgG (400 μg/ml) for 0.5 h at 37° C., 5% CO2. DiI-HDL was added to a final concentration of (1 μg/ml) and incubated for 1 h at 37° C., 5% CO2. The medium was removed and the embryos gently washed with dPBS and fixed with 3% paraformaldehyde for 15 min. The fixed embryos were placed in dPBS, 0.1% azide in a well slide and examined by laser scanning confocal microscopy. The intensity of yolk sac fluorescence in mouse embryos incubated with DiI-HDL in the presence of either RAP, ovalbumin, anti-cubilin IgG or control IgG was evaluated by seven people in a double blinded fashion. The assessments of relative intensity were analyzed by a nonparametric statistical test using RANK and ANOVA procedures (SAS Institute, Inc., Cary, N.C.).

B1: RAP: 39 kDa chaperone protein that inhibits ligand binding to LDLR family members; recombinant human RAP (protein, UniProt P30533 35-357, looked up)
Alpha-2-macroglobulin …: YSREKNQPKPSPKRESGEEFRMEKLNQLWEKAQRLHLPPVRLAELHADLKIQERDELAWKKLKLDGLDEDGEKEARLIRNLNVILAKYGLDGKKDARQVTSNSLSGTQEDGLDDPRLEKLWHKAKTSGKFSGEELDKLWREFLHHKEKVHEYNVLLETLSRTEEIHENVISPSDLSDIKGSVLHSRHTELKEKLRSINQGLDRLRRVSHQGYSTEAEFEEPRVIDLWDLAQSANLTDKELEAFREELKHFEAKIEKHNHYQKQLEIAHEKLRHAESVGDGERVSRSREKHALLEGRTKELGYTVKKHLQDLSGRISRARHNEL
DiI-HDL uptake in presence of competitor [1]: could be blocked; also recorded: completely blocked | fluorescence intensity RANK score of DiI-HDL incorporation into extraembryonic endoderm [2]: 9.77±0.22
